B1: 3B10-E6 anti-CD123 antibody (antibody, V domains shown)
VH: QVQLQQSGPELRRPGSSVRLSCKASGYRIKDFLIHWIKNRPEHGLEWIGWIDPEDGETKYAQKFQTKATLTADTSSNTAYMQLSSLTSEDTATYFCARWGDVYYGLMRGHVMDAWGQGTSVTVSS
VL: DVLMTQTPVSLPVSLGGQVSISCRSSQSLVHSDGDTYLHWYLQKPGQSPQLLIYRVSNRFSGVPDRFSGSGSGTDFTLKISRVEPEDLGLYYCLQTTHFPPWTFGGGTKLEMK
notes: rat IgG, hybridoma supernatant; also called BFX - 3B10
B2: 11H3-E5 anti-CD3 antibody (antibody, V domains shown)
VH: EVQLVETGGSLVQPGKSLKLTCATSGFTFSNAWMHWVRQSPEKQLEWVAQIKAKSNNYATYYAESVKGRFTISRDDSKSSVYLQMNSLKEEDTAIYYCRGTYYAYKPFDYWGQGVMVTVSS
VL: DVVMTQTPVSLSVSLGGQVSISCRSSQSLVHDNGNTYLSWSLQKPGQSPQVLIYKVSNRFSGTSDRFTGSGSGTDFTLKISRVEPDDLGVYYCGQGTQYPFTFGSGTKLEIK
notes: rat mAb, hybridoma supernatant

Experiments:
[1] = molecular target: T1, human CD123 (IL3RA) Strep-II tagged Fc-fusion protein (human); assay: SPR Proteon XPR36, rat IgG captured, CD123-Fc analyte
T1 construct: also called human CD123-Fc
Protocol: Screening of anti-CD123 rat IgGs for binding affinities to human CD123 and cross-reactivities to cyno CD123 was performed with hybridoma supernatants using a Proteon XPR36 (Biorad) in a one-shot kinetics approach. A capture assay was established using a goat anti-rat IgG (112-005-071, Jackson Immuno Research). The capture antibody was coated on GLC chips (176-5011, Biorad) to approx. 8000 RU in the vertical direction using the amine coupling kit (176-2410, Biorad). […] Binding kinetics with human and cyno CD123-Fc fusion protein was measured at 100 μl/min in the horizontal direction with 120 sec. and 600 sec. for association and dissociation, respectively. The CD123-Fc proteins were used in twofold dilutions from 6 nM to 100 nM. PBSET buffer (176-2730, Biorad) was used as assay buffer. Regeneration was achieved by injection of 10 mM Glycine buffer pH 1.5 for 18 sec at 30 μl/min. Data processing and analysis was performed using ProteonManager software v3.0. Fitting of the sensorgrams was done with a 1:1 Langmuir model.

[2] = molecular target: T2, human CD3ε/δ-Fc fusion heterodimer (hCD3ε/δ-hFc) (human, UniProt P04234 22-105); assay: SPR single point, hybridoma supernatant
T2 construct: also called CD3ed-Fc; human CD3ε/δ complex; not shown: hinge-CH2-CH3 of human IgG with tag
Protocol: Rats with positive sera were scarified and B cells were fused with mouse myeloma cells. The resulting hybridomas were screened on HEK293 cells transfected with human or cynomolgus CD3ε and CD3δ expression plasmids, on Jurkat E6.1 (CD3+) and Jurkat T3.5 (CD3-) by flow cytometry. Supernatant of Hybridoma clones was used to assess by surface plasmon resonance single point kinetic against human and Macaca fascicularis CD3ε/δ complex by fixing the analyte at 25 nM (data presented in table 3).

T1 sequence (chain, as listed by the source limits assumed): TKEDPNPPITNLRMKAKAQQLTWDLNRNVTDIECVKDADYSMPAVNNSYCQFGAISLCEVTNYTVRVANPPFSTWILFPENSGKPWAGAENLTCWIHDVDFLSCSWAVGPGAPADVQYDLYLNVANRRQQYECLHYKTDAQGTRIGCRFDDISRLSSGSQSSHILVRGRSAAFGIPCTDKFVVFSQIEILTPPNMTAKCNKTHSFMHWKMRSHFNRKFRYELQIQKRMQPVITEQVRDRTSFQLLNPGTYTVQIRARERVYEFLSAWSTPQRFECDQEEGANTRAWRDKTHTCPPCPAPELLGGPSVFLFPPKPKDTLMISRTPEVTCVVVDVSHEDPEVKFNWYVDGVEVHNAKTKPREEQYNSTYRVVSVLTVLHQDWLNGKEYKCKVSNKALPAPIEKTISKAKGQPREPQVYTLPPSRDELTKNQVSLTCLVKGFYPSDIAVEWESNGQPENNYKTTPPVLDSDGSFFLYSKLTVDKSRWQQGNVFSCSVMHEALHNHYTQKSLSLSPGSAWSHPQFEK
T2 sequence (chain, as listed by the source mutant, chain 1 of 2): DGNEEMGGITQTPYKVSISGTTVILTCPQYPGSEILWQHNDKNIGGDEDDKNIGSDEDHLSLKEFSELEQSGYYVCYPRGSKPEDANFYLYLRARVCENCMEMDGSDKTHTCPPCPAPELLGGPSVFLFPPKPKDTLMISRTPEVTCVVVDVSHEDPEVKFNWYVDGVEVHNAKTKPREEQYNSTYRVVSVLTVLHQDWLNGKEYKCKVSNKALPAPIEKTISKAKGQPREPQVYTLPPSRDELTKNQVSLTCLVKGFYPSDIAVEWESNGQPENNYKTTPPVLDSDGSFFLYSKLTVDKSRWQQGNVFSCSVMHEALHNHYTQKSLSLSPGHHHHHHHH
T2 sequence (P04234 22-105, stated change not applied, chain 2 of 2): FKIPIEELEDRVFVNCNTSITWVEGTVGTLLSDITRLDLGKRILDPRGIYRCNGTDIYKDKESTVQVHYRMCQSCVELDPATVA

| Binder | koff [1] | RU at 25 nM [2] |
| --- | --- | --- |
| B1 | ~5e-05 s⁻¹ | – |
| B2 | – | 7 RU |
